# Laboratory results from patent publication US20220242963A1, “B-CELL ACTIVATING CD73 ANTIBODIES” (CORVUS PHARMACEUTICALS, INC., priority 2018, published 2022).
# Values joined by “and” are separate entries in the source; they are usually repeats but may differ in a detail not shown here. Equal values may be shown once.
# T1: CD73 (Homo sapiens, UniProt P21589)
# T1 construct: endogenous in cells; host or cells: Whole blood of cancer patients (CD73+ CD8 T cells)
# T1 sequence (P21589 27-549): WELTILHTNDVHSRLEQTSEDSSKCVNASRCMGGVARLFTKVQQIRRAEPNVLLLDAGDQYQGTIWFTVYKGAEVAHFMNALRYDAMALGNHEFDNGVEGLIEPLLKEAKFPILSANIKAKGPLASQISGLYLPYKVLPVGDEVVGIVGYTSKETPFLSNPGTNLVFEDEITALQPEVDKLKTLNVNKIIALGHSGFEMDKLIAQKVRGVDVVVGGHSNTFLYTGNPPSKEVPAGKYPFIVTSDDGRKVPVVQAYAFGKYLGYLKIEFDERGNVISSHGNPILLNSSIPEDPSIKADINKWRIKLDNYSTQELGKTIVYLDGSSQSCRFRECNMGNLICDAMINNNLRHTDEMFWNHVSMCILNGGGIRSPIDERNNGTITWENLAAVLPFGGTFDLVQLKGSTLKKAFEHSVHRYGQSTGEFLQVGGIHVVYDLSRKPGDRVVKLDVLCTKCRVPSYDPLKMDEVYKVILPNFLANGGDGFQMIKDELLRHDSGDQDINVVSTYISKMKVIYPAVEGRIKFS
# B1: CPI-006: humanized CD73 antibody, wherein the light chain is SEQ ID NO:8 and the heavy chain is SEQ ID NO:7; IgG1 Fcγ receptor-deficient (antibody, V domains shown)
# VH: QVQLVQSGAEVEKPGASVKVSCKASGYTFTSYWITWVRQAPGQGLEWMGDIYPGSGNTNYNEKFKTRVTITADKSTSTAYMELSSLRSEDTAVYYCAKEGGLTTEDYALDYWGQGTLVTV
# VL: EIVLTQSPATLSLSPGERATLSCRASKNVSTSGYSYMHWYQQKPGQAPRLLIYLASNLESGIPPRFSGSGYGTDFTLTINNIESEDAAYYFCQHSRELPFTFGQGTKVEIK
# Columns and labels:
# [1] = Phase 1/1B clinical trial: adverse events, tolerability; type: in vivo, human
# Source text: The primary objectives of the study were to show safety and tolerability of the active agents, and the second objectives of the study were to identify PK/PD profiles, drug efficacy, and biomarkers. […] The adenosine gene signature was not used to select patients. The dose expansion includes treatment of non-small cell lung cancer, renal cell carcinoma, non-Hodgkin's lymphoma, and other types of cancers (e.g., bladder, prostate, pancreatic, colorectal, squamous cell cancer of the head and neck). CPI-006 was given as a one hour infusion every three weeks, and for the combination treatments 100 mg po BID of ciforadenant was administered. Biomarker assessment was conducted for the effects of CD73 expression in tumors, peripheral blood lymphocyte subsets, antibody occupancy of target, and serum cytokines.
# The baseline demographics of the patients are shown in Table 2 below, and the adverse events are shown in Table 3 (where TEAE refers to treatment-related adverse events based on any grade 3 or 4 events, or 2 or more of all grades).
# [2] = system: peripheral B cells, T cells, NK cells, monocytes; experiment: Phase 1/1B clinical trial: circulating lymphocyte subsets in whole blood by flow cytometry; type: in vivo, human
# Description: The highest line at day 10 represents 1 mg/kg, the second highest line at day 10 represents 3 mg/kg, the second lowest line at day 10 represents 6 mg/kg, and the lowest line at day 10 represents 12 mg/kg.
# Whole blood was collected pre-treatment or at 0.5 hr or 24 hr after administration of CPI-006 as a single agent (left) or in combination with CPI-444 (right). The absolute number of CD19+ B cells, CD3+ T cells, CD3+CD4+ T cells, CD3+CD8+ T cells, and CD3−CD16+CD56+ NK cells were determined by flow cytometry with quantification beads.
# Blood was collected pre-treatment or 0.5 hr after administration of CPI-006. The absolute number of CD19^+ B cells, as well as the percentage of B cells positive for CD73, were determined using flow cytometry.
# Whole blood samples from the patients treated with a single dose (i.e., 1 mg/kg, 3 mg/kg, or 6 mg/kg) of CPI-006 monotherapy were analyzed by flow cytometry to further evaluate immunomodulatory effects. Levels of B cells (CD19+CD3−) are reported as a percent of total lymphocytes (gated based on scatter properties), as shown in FIG. 4A. CD73 expression was evaluated with a non-competing anti-CD73 antibody and is reported on B cells (CD19+CD3−) and T cells (CD19−CD3+), as shown in FIG. 4B. Purified B cells from healthy human donors were incubated with CPI-006 or human IgG1 isotype control at concentrations of 0.1 μg/mL, 1 μg/mL, and 10 μg/mL for 30 minutes.
# CD73 = biological target: T1, CD73; experiment: Occupancy and inhibition of CD73 in a tumor biopsy of a treated colorectal cancer patient; type: in vivo; conditions: 12 mg/kg, retroperitoneal lesion at trough pre-dose 3, FIG. 5
# Description: The tumor biopsy was of a retroperitoneal lesion obtained at trough pre-dose 3.
# A tumor biopsy taken from a colorectal cancer patient treated with CPI-006 was evaluated for inhibition of CD73 enzymatic activity.
# inflammatory cytokines = experiment: Phase 1/1B clinical trial: serum cytokine levels; type: in vivo, human; conditions: patients following treatment
# Description: (§1) Immunomodulatory activity of CPI-006 was evaluated in patients administered CPI-006. […] Further, T cell activation was evaluated upon treatment with various dosages of the monotherapy CPI-006 or a combination therapy of CPI-006 and ciforadenant. Once a T cell clone is activated, the clone can expand and produce clonal copies of the original clone. […] The results further affirm CPI-006 is an immunomodulator of CD73 positive cells.
# T cell clones = experiment: T cell receptor Vb sequencing of peripheral blood (T cell clone frequency); type: in vivo, human
# Description: FIGS. 11A-11C show clonal abundance plots of T cell clones for three patients treated with CP1-006. Sequencing of the Vb region of the T cell receptor was performed to identify the frequency of unique T cell clones in peripheral blood samples collected pre-treatment and on-treatment at 6 weeks of 12 mg/kg CPI-006+ciforadenant (FIG. 11A), 12 mg/kg CPI-006 (FIG. 11B), or 18 mg/kg CPI-006 (FIG. 11C). Expansion of new T cell clones was observed after 6 weeks in 3 of 8 evaluated patients treated with CPI-006.
# as §1
# [3] = cancer patients, monotherapy n = 12, combination n = 8
molecule,measurement,setting,value
B1,"Adverse Events Number of Patients: Anemia, All Grades",[1]; [3],1
same,"Adverse Events Number of Patients: Anemia, Grade 3 or 4",[1]; [3],1
same,"Adverse Events Number of Patients: Chills, All Grades",[1]; [3],4
same,"Adverse Events Number of Patients: Chills, Grade 3 or 4",[1]; [3],0
same,"Adverse Events Number of Patients: Diarrhea, All Grades",[1]; [3],1
same,"Adverse Events Number of Patients: Diarrhea, Grade 3 or 4",[1]; [3],0
same,"Adverse Events Number of Patients: Fatigue, All Grades",[1]; [3],2
same,"Adverse Events Number of Patients: Fatigue, Grade 3 or 4",[1]; [3],0
same,"Adverse Events Number of Patients: Headache, All Grades",[1]; [3],2
same,"Adverse Events Number of Patients: Headache, Grade 3 or 4",[1]; [3],0
same,"Adverse Events Number of Patients: Infusion-related reaction, All Grades",[1]; [3],2
same,"Adverse Events Number of Patients: Infusion-related reaction, Grade 3 or 4",[1]; [3],0
same,"Adverse Events Number of Patients: Nausea, All Grades",[1]; [3],3
same,"Adverse Events Number of Patients: Nausea, Grade 3 or 4",[1]; [3],0
same,"Adverse Events Number of Patients: Pruritus, All Grades",[1]; [3],2
same,"Adverse Events Number of Patients: Pruritus, Grade 3 or 4",[1]; [3],0
same,"Adverse Events Number of Patients: Subjects with any TEAE, All Grades",[1]; [3],8
same,"Adverse Events Number of Patients: Subjects with any TEAE, Grade 3 or 4",[1]; [3],1
same,dose-limiting toxicity,"[1]; doses of 1, 3, and 6 mg/kg",no dose-limiting toxicity
same,tolerability,"[1]; doses of 1, 3, and 6 mg/kg",well tolerated
same,grade 3/4 adverse events,"[1]; patients of Table 4, CPI-006 monotherapy 1, 3, 6 mg/kg",No grade 3/4 adverse events were reported
same,% Decrease of Peripheral B cells at C1D1 (0.5 h),"[2]; 3 mg/kg, patients 4-6 (Pancreatic, Pancreatic, Prostate)",71.2% and 62.3% and 68.1%
same,CD73POS B cells levels over time,"[2]; 1 to 12 mg/kg, repeated infusions, FIG. 7C","decrease with each infusion of CPI-006, and then partially return to a new steady state level"
same,"CD4/CD8 ratios, including CD73NEG subsets","[2]; 0.5 hours after administration, FIGS. 7A-7B",increase
same,"number of circulating cells, all evaluated lymphocyte subsets (B, T, CD4+ T, CD8+ T, NK)","[2]; 0.5 hr post-treatment versus pre-treatment, FIG. 12",decreased
same,number of circulating CD73+ B cells,"[2]; 0.5 hr post-treatment, FIG. 13",substantially decreased
same,number of circulating CD73− B cells,"[2]; 0.5 hr post-treatment, FIG. 13",either unchanged or modestly decreased
same,number of circulating B cells,"[2]; 24 hr post-treatment, FIG. 12",partial return
same,"number of circulating cells, other cell types (T, NK)","[2]; 24 hr post-treatment, FIG. 12",returned to near baseline levels
same,HLA-DR expression,"[2]; cancer patients receiving 6 mg/kg monotherapy, FIG. 7D","increase in HLA-DR expression, followed by a gradual decrease"
same,B lymphocyte trafficking,"[2]; clinical data, FIGS. 4A-4B",transient redistribution of B cells
same,CD73NEG B cells,[2]; following treatment,No significant changes
same,CD73 enzymatic activity in tumor biopsy,CD73,inhibit CD73 enzymatic activity
same,occupancy of CD73 in tumor biopsy,CD73,binds and saturates CD73
same,"cytokines including TNF-α, TNF-β, MIP-1α, MIP-1β, IL-6, IL-10, IL-8, IP-10, MCP-1, MCP-2, IL-1Ra, GRO-α, MIP-3α, TNF-RII, IL-7, MMP-9",inflammatory cytokines; FIG. 8A,rapid induction
same,levels of CRP and SAA,inflammatory cytokines; FIG. 8B,subsequent increase
same,generation of new T cell clones,"T cell clones; 12 or 18 mg/kg CPI-006, or 12 mg/kg CPI-006 + ciforadenant, 6 weeks, FIGS. 11A-11C",new T cell clones were generated
same,evaluated patients with expansion of new T cell clones,"T cell clones; after 6 weeks of treatment, peripheral blood",3 of 8
